This note sets out measurements from publication PMC11148139.

Where two headings read alike, the source gives them in different places.

In the case of “GCH1 (GTP cyclohydrolase I): S81D phosphomimetic”, where the note is “phosphorylation at S81”, the other entry was “increases”.
In the case of “LDHA (lactate dehydrogenase A): C163A/C293A (2C-A)”, the localisation_or_trafficking entry by setting is: (other: S-nitrosylation at C163) “decreases”; (other: S-nitrosylation at C293) “decreases”.
For LDHA (lactate dehydrogenase A): C163A, the enzymatic_activity entry (other: S-nitrosylation at C163) is “decreases”.
Consider LDHA (lactate dehydrogenase A): C293A, for which the enzymatic_activity entry (other: S-nitrosylation at C293) is “decreases”.
